Source: the DeepSol protein solubility set

Assay: soluble on expression in E. coli; label from the status in PepcDB or PDB records

| Sequence | soluble on expression in E. coli |
| --- | --- |
| MATPLWQTIYNNAVLLPESPKAIVHFLGGAFIAAAPQVTYRRLLEGLGDRGFAVIATPFINTFDHTTLADEVGRSYRLAYERLLALGLISPELPIFGVGHSMGSKLHLLMGCAQTSDRRGNVLLAFNNYSARRSIPLLGQLAPALDVTVEFSPSPARTLRLIRDRYSVANNLLVKFRNDEIDQTRDLIGALRDRFPETSEWLRLSGNHLTPVGQSLPQQTGLAWLDGVSQLASRELGRDLEVVTTAIADWCDRQLTAPATVVLEHHHHHH | not soluble |
| MGSDKIHHHHHHMTEITTLSQFLTTAKTQFQVYELGRRVQHIDMLAFHQIESLVTPYPYPIQGHAQFAVVFWNESQQHFIWFLKLPLDEQGLLSPAPRSQFIEMVLTALGQDPTQPLTDEQQDRLANNPFSFKPSQEKLSVFNALVRKQLGLSASIQYEFAMQYLSGQIAPSEWQHIGMQGLSDVCVRLGELDHEQHILASFDQAAIEVQIALCQCLEHLQLTEAIAMKIFSKFITAPNEYQAYYLRALASQTELSQQALLHLQQTDRLDANALISIAGRNWPILKQALSRSIYLEALALQPQAFFNQIFADIVAIPNLRNHLLGELRNPNRSVQLSQAIGGLFKAASK | not soluble |
| MSGRLIGKVALVSGGARGMGASHVRAMVAEGAKVVFGDILDEEGKAVAAELADAARYVHLDVTQPAQWTAAVDTAVTAFGGLHVLVNNAGILNIGTIEDYALTEWQRILDVNLTGVFLGIRAVVKPMKEAGRGSIINISSIEGLAGTVACHGYTATKFAVRGLTKSTALELGPSGIRVNSIHPGLVKTPMTDWVPEDIFQTALGRAAEPVEVSNLVVYLASDESSYSTGAEFVVDGGTVAGLAHNDFGAVEVSSQPEWVT | not soluble |
| MGSDKIHHHHHHMSKIVEVSKSPYAKLKTIPVGSVRVNGFMGKYFETLVNVTLPTQYDLLENTGRLDNFRIAAGKMEGSYKTLFPFDDTDVYKWAETVSFALANRKLPELEKILDSVIEEVKAAQDEDGYLGTYLSGDRKKERWTNLAWNHELYNAGHLIQAAVAHRRVTGKNTLFEVAKRFADHIYNTFGPEKKEGAPGHPEVEMALVELYRETGDRKYLDLARYFIYARGKGLASVPRNPGPEYFIDHKPFVELEEITGHAVRALYLCSGATDLYLETGDEKIWQALNRLWENFVTKKMYITGGAGSRHDWESFGEEYELPNRRSYAESCASIANFMWNFRMLLATGDGKFADVMEQVLYNGLLSGISLDGKHYFYFNPLEDYGRTRRQKWFDCACCPPNLARFIVSFPGYMYTTSDDGVQVHLYEKSTARLDFKGSVVEIEQETDYPWSGEVAFTIKTDIEEPFSIYLRLPSWADDFVLRVDGKAVIAKPQNGYVKLSQSWKGKHTVELSLPMKAVFIEAHPFVRDDLGKAAVKRGPVVYCIEQADNPDFHVWTLVLNSESLKEEKGKILDREAVFLKGTGRALDISEWEGKLYRKLSEVREKTVEFTLIPYHMWANREPGAMAVWLKR | not soluble |
| MGSDKIHHHHHHMKILFGPVSSRRFGRSLGIDLSPSKKQCNFDCVYCELDPKKAQEKQDEIISIDKIISEVKAMLEKNVEFDFLTLTANGEPSLYPYLNELILSLRSIAKDKKLLILSNGTAVLDEDKFNALLKLDVVKFSLDSAVAKTFYRIDRALKNIDLEKMIEKMADFRARFNGDLIMEILVVKDLNDNEEEFEALNQALKKIMPLRVDLSTIDRPPAYAVKKVSEEKLLELSKLIDSTPVLLAKRHYEGEKLSFNEEELLKMLHLRSQSEIDIEVKFDEQSKTLLNQLIKEKKVKILDLAGVKFYKV | not soluble |
| MAKMRRYPAVAGQFYPEGDALIEMLSSFFKDLGEEGTKRTITAGVAPHAGYVFSGFTASRTYKAIYEDGLPEVFVIFGPNHTGLGSPIALYPEGEWITPMGSIKVDSKFAKEIVKRSGIADLDDLAHKYEHSIEVQLPFIQYIAEKAGVEVKIVPITLGIQDEEVSRSLGRSIFEASTSLGRDTIIIASTDFMHYGSFYGYVPFRGRPEELPNMVRDWDMRIIRRILDFDLDGMFSEIREMNHTMCGPGGVGAGIIYSRLMKAKEAELLHYTTSFEVSRSPDAIVGYASIIMKRLEHHHHHH | not soluble |
| MTSRGITSLSNHLIPLSFPARLRIDQADKQAQAGLMKDHAQHTANIGKFQDSFVTADGQARASVPLSRPETLWFNTGTLCNIECANCYILSSPKNDALVYLSADEVSAYLDQIAARGWPVHEIGFTGGEPFMNPQIIAMSRTALERGFEVLILTNAMRPMMRKTMRLGVAALVRDFGDRLTLRVSVDHHSAACHDAERGAGSFARTLAGMVWLRDCGARMTVAGRTVWGESEAEARAGYAALYAEYGFAIDAFDPGQTVLFPEMDERVEVPEITTACWDILGKSPETVMCASSRMVVKRKGAAHPVVLACTLLPYAPEFELGQTLAEAERPVQLNHPHCAKFCVLGGASCSA | not soluble |
| MSLSHSAEDSRRRELGAFLRSRRERLTPSATGISTGLRRRTPGLRREEVAMIAGVGTTWYTWLEQGRDVRPSVEVLTALSGALRLDAAEKRHLFTLAGRQLPERRRIAAGKVEGPLLHMLQSLVLQPAYVVGPRWDVLAWNDAAVAIFGDYGQLEGDARNIIHGVFTDPHRRHLLADWEQVARATLAAFRAESARYVGDPDFERLIALMMRSSPEFREWWPQRDVVHRLSGMKHLRHPTAGAMVFEHMSLSIDDGSDMKLIVYTPLAEQNSIAKLQSLLDAILRKEDRLKGIITITTDPNSSSVDKLAAALEHHHHHH | soluble |
| MSDQPRPTVIITGASSGVGLYATKALANRGWHVIMACRNLEKAEQAAKNLQIPPEAYTILHLDLSSLASVRGFVESFRALNRPLRALVCNAAVYYPLLKEPIYSVDGYEITVATNHLGHFLLINLLLEDLKNSPESDKRLVILGTVTANRKELGGKIPIPAPPDLGNLEGFEKGFKKPIAMINGKPFKSGKAYKDSKLCNMLTARELHRRFHESTGIVFNSLYPGCVADTPLFRHHFPLFQKLFPLFQKKITGGYVSQELAGERVAMVVADPEFRQSGVHWSWGLEHHHHHH | soluble |
| MTKSLESVSFKDVTVDFSRDEWQQLDLAQKSLYREVMLENYFNLISVGCQVPKPEVIFSLEQEEPCMLDGEIPSQSRPDGDIGFGPLQQRMSEEVSFQSEININLFTRDDPYSILEELWKDDEHTRKCGENQNKPLSRVVFINKKTLANDSIFEYKDIGEIVHVNTHLVSSRKRPHNCNSCGKNLEPIITLYNRNNATENSDKTIGDGDIFTHLNSHTEVTACECNQCGKPLHHKQALIQQQKIHTRESLYLFSDYVNVFSPKSHAFAHESICAEEKQHECHECEAVFTQKSQLDGSQRVYAGICTEYEKDFSLKSNRQKTPYEGNYYKCSDYGRAFIQKSDLFRCQRIHSGEKPYEYSECEKNLPQNSNLNIHKKIHTGGKHFECTECGKAFTRKSTLSMHQKIHTGEKPYVCTECGKAFIRKSHFITHERIHTGEKPYECSDCGKSFIKKSQLHVHQRIHTGENPFICSECGKVFTHKTNLIIHQKIHTGERPYICTVCGKAFTDRSNLIKHQKIHTGEKPYKCSDCGKSFTWKSRLRIHQKCHTGERHYECSECGKAFIQKSTLSMHQRIHRGEKPYVCTECGKAFFHKSHFITHERIHTGEKPYECSICGKSFTKKSQLHVHQQIHTGEKPYRCAECGKAFTDRSNLFTHQKIHTGEKPYKCSDCGKAFTRKSGLHIHQQSHTGERHYECSECGKAFARKSTLIMHQRIHTGEKPYICNECGKSFIQKSHLNRHRRIHTGEKPYECSDCGKSFIKKSQLHEHHRIHTGEKPYICAECGKAFTIRSNLIKHQKIHTKQKPYKCSDLGKALNWKPQLSMPQKSDNGEVECSMPQLWCGDSEGDQGQLSSI | soluble |
| MGSDKIHHHHHHMKITTVGLDIAKSVFHFVGVNKAGKLVKKKMIKRKDLLHFLAQIEPCLVVMEACGGANYWAREFEKVGHQVKLIAPQYVVPYRQGNKNDYNDALAIAEAAQRPNMRFVQPKPAEQQDIQMLHRMRERLSKQSTALVNQVRGMLAEYGIVITKGKASFRSKLPDILENADNELTAKGRSIFYQLYEEFNGIEERLKRCDNQVQQETKNNHVCQRLESVPGIGPVTATAFYAAVGEGKDFTNGRHFSAWCGLVPKQHSSGGKDNLLGISKRGNAYLRTLFIHGARAVLYHSDGKGDRFSRWAIALAERRGFNRACVAVANKLARIAWVIAAREDEYRMAV | not soluble |
| SGCIGSRTVGNEVIAVDWKGLKDVDQINMDSTSSLHGSSLHRPSTEQTRTDFSWDGINLSMEDTTSILPKLKRNSNAYGIGALAKSSFSGISRSMKDHVTKPTAMGQGRVAHMIEWQGWGKTPAVQPQHSHESVRRDTDAYSDLSDGEKEARFLAGVMEQFAISEATLMAWSSMDGEDMSVNSTQEPLGCNYSDNYQELMDSQDALAQAPMDGWPHSYVSQGMYCLGSSDAWEASDQSLIASPATGSYLGPAFDDSQPSLHEMGPSQPASGYSALEPPPLLGGDTDWAPGVGAVDLARGPAEEEKRPLAPEEGEDAGCQDLESLSPREDPEMSTTLSRKVSDVTSSGVQSFDEEEGEANN | soluble |
| MIITDVEVRVFRTTTRRHSDSAGHAHPGPAHQVEQAMLTVRTEDGQEGHSFTAPEIVRPHVIEKFVKKVLIGEDHRDRERLWQDLAHWQRGSAAQLTDRTLAVVDCALWDLAGRSLGQPVYKLIGGYRDKVLAYGSIMCGDELEGGLATPEDYGRFAETLVKRGYKGIKLHTWMPPVSWAPDVKMDLKACAAVREAVGPDIRLMIDAFHWYSRTDALALGRGLEKLGFDWIEEPMDEQSLSSYKWLSDNLDIPVVGPESAAGKHWHRAEWIKAGACDILRTGVNDVGGITPALKTMHLAEAFGMECEVHGNTAMNLHVVAATKNCRWYERGLLHPFLEYDDGHDYLKSLSDPMDRDGFVHVPDRPGLGEDIDFTFIDNNRVR | soluble |
| MRITQEQAEAIFCEDLKQFGKTVEQSVKVCLTDAQIAALVSFCYNVETQAFCKSTLLKKLNNGAYESVPAELQKWNKVGGKAIQGFVNRRAAEAGLWAKGSYVCFNTQRVETKNTIGLLKIETLAPMIGSCSGLGGLLVGNGPLPALWF | not soluble |
| MGSDKIHHHHHHMFTDYVLLLFSTTPRRAKGLFNVLRGRRTVSTLFAGLTAGYLDLLDSCHEVPLEDFMAATAALTENGQLTSTATGCWQLTQAGEHRQAKLRQTLYMPQNFEVFQTTDVRRFRIVSQLALQVVSELVHHDRHYYPVTTDPGIQAQVKQWLRQQSKVELGEQIHAALTAFLTSLADPELPTVFVQGITGYQEPGLTNEQLAAQLGRQPWEASLMHTDVICQWIAWIQRHPRDPFSQLLSVLTQASAISQSAEQTYQAFLKTQQLAAIAQTRHLKMSTVREHLLEVAIWSPDFPFEMVLNHEITQQLATIFAAQPDIANWSFQEAQAALPTLDFFEFRLFQIMRCQHVRR | not soluble |
| MGSDKIHHHHHHMERSDAAMQPDAVSRPEIVMATRGITMLFPGTKALDNVDYNVYRGKVNVIIGENGAGKSTLMKILAGVQQPTSGQILLNGEAVRIADTRDAAAKGIGMVHQELNLSENLSVAENIFLGRELQKGVAPIDYLEQERIAAELMSRLDQAISPRTEVASLKVGQQQLVEIAKALADQADILILDEPTSALSKTEVEILFRVIRELTRQNVSIIYISHRLEELMAIGDYITILRDGCFQAEAAVSDIDVPWIVREMLGGDPVTSFLHSGRTFGAPILEAEHLTCLNDAGHQVVNDVSLMVREGEIVGIYGLMGAGRTELFECLLGIQNDYLGKIYLDSKPVSPRLSTAQRIRMGMSLVPEDRKKTGIFPLSSVASNLTIASLWRRLKYGMAIFQRQEQEVVASTVGRLAIKVSSPEVEIQALSGGNQQKVVIGRSLLTSPKVLLLDEPTRGIDVGAKADVFEMMVGLSEQGIGVLFSTSDLKEIMAVSDRILVMSNGKLTANIVRQSASESALVSASAQGF | not soluble |
| MNLFFDTELGKQQNKATHKIRVMSEAWLEKNGYCPCCGSKPMQRFANNKPVADLFCPNCHEQYELKSKNQKTIGNSVPDGAYHTMLERIRSDTNPNFFFLAYKKADYSIRQLVLVPKHFITPDMIIPRNKGIKNRPNHIMCSINLAPLPESGKIFLIDNSRIIEPETVLKKWQSNLFLRNQNAERKGWLLAVMKCIDQLPEEFTLSQMYEFENKLSIQFPQNNHIRDKIRQQLQILRDQNTIEFIGRGLYKKS | not soluble |
